From the supplement of paper PMC7125110
± gives the standard error. Fewer inactive variants are shown than the library holds.

B1: glmS ribozyme (parent)
chain: AUAAAAGCGCCAGAACUACAGAAAUGUAGUUGACGAGGAGGAGGUUUAUCGAAUUUUCGGCGGAUGCCUCCAAA

Tests used:
Settings in all cases: with glucosamine-6-phosphate
[1] = variants of: B1; assay: self-cleavage kobs at 40 uM GlcN6P; higher = faster cleavage; RNA array
Method in brief: (§1)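 E. coli RNA polymerase transcribed barcoded ribozyme variants in situ on sequenced MiSeq chips, which were tracked via a hybridised Cy3 probe at 37 °C. Tiles were imaged over ~14 h after glucosamine-6-phosphate (40 μM to 10 mM) in HEPES/KCl/Mg(OAc)2 buffer was flowed in. Normalised per-tile medians were fit to one- or two-exponential decays for kobs, and kcat and KM came from weighted Michaelis–Menten fits.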

[2] = variants of: B1; assay: self-cleavage kobs at 160 uM GlcN6P; higher = faster cleavage; RNA array
Method in brief: as §1

[3] = variants of: B1; assay: self-cleavage kobs at 10000 uM GlcN6P; higher = faster cleavage; RNA array
Method in brief: as §1

[4] = variants of: B1; assay: self-cleavage kobs at 640 uM GlcN6P; higher = faster cleavage; RNA array
Method in brief: as §1

[5] = variants of: B1; assay: self-cleavage kobs at 2500 uM GlcN6P; higher = faster cleavage; RNA array
Method in brief: as §1

| Variant | self-cleavage kobs at 40 uM GlcN6P [1] [s⁻¹] | self-cleavage kobs at 160 uM GlcN6P [2] [s⁻¹] | self-cleavage kobs at 10000 uM GlcN6P [3] [s⁻¹] | self-cleavage kobs at 640 uM GlcN6P [4] [s⁻¹] | self-cleavage kobs at 2500 uM GlcN6P [5] [s⁻¹] |
| --- | --- | --- | --- | --- | --- |
| A12G A48U | < 1e-05 | < 1e-05 | 2.34e-05 ± 7.6e-06 |  |  |
| A6C G41U U65A | < 1e-05 |  |  |  |  |
| G29U A39U | 0.000106 ± 1e-05 | 0.000145 ± 2.1e-05 | 0.0042 ± 0.00041 | 0.000784 ± 0.00013 | 0.00196 ± 0.00026 |
| G41A C58A | < 1e-05 |  |  | < 1e-05 |  |
| G32U U65C | < 1e-05 | < 1e-05 |  | < 1e-05 | < 1e-05 |
| C8G A14G A33G | < 1e-05 |  | < 1e-05 |  | < 1e-05 |
| A6C G35U A36G G63U | < 1e-05 |  |  |  |  |
| G38C U65G G66A | < 1e-05 | < 1e-05 |  | < 1e-05 | < 1e-05 |
| A39U G40C G43U | < 1e-05 |  | < 1e-05 |  |  |
| A33G A42U | < 1e-05 | < 1e-05 | < 1e-05 | < 1e-05 | < 1e-05 |
| C11A G29U G59U | 0.000103 ± 2.9e-05 |  |  |  |  |
| A33G A39G G60U | < 1e-05 |  | < 1e-05 |  | < 1e-05 |
| U31C G44U | < 1e-05 | < 1e-05 | 2.15e-05 ± 1e-05 |  |  |
| G38A U46G A52U | < 1e-05 |  |  |  |  |
| G63C C71U | < 1e-05 | < 1e-05 | < 1e-05 |  |  |
| A6U G62C | < 1e-05 |  |  | < 1e-05 | < 1e-05 |
| C8A U45C | < 1e-05 |  |  | < 1e-05 | < 1e-05 |
| C11A G37U A42U C68U | < 1e-05 |  |  | < 1e-05 |  |
| A6C G13C C68G | < 1e-05 |  |  |  | < 1e-05 |
| A36G G60U | < 1e-05 | < 1e-05 | < 1e-05 | < 1e-05 | < 1e-05 |
| A6G C11A C50G C58U | 0.000139 ± 2.5e-05 |  |  |  |  |
| C16U U31G C50G C70A | 0.000109 ± 2.3e-05 |  | 6.25e-05 ± 1.3e-05 |  |  |
| G44A C50G U55A | < 1e-05 |  |  | < 1e-05 | < 1e-05 |
| G13U A14U U30C A33C C71A | < 1e-05 |  | < 1e-05 |  |  |
| C8G G62U | < 1e-05 | < 1e-05 |  | < 1e-05 | < 1e-05 |

| Variant | self-cleavage kobs at 40 uM GlcN6P [1] [s⁻¹] | self-cleavage kobs at 160 uM GlcN6P [2] [s⁻¹] | self-cleavage kobs at 10000 uM GlcN6P [3] [s⁻¹] | self-cleavage kobs at 640 uM GlcN6P [4] [s⁻¹] | self-cleavage kobs at 2500 uM GlcN6P [5] [s⁻¹] |
| --- | --- | --- | --- | --- | --- |
| A15U G51C A64G | < 1e-05 |  |  |  |  |
| A12U A15G | 0.00156 ± 0.00021 | 0.00363 ± 0.00072 | 0.0602 ± 0.02 | 0.0146 ± 0.0029 | 0.0139 ± 0.0034 |
| C10U U45C G63A | < 1e-05 | < 1e-05 |  | < 1e-05 |  |
| G44U U49G | < 1e-05 | < 1e-05 |  | < 1e-05 |  |
| A6G U46G C50G U65G C70A | < 1e-05 |  |  |  |  |
| A36G G43A U54G | < 1e-05 |  | < 1e-05 | < 1e-05 | < 1e-05 |
| C8G A39U C58U | < 1e-05 | < 1e-05 | < 1e-05 | < 1e-05 |  |
| C8G A48C | < 1e-05 | < 1e-05 |  |  | < 1e-05 |
| C8G A48G C58G | < 1e-05 | < 1e-05 | < 1e-05 | < 1e-05 |  |
| G51C G66C | < 1e-05 | < 1e-05 |  | < 1e-05 |  |
| G9A A14C | < 1e-05 | < 1e-05 |  |  | < 1e-05 |
| A48U A64C | < 1e-05 | < 1e-05 |  | < 1e-05 |  |
| C11A A12C A64C | < 1e-05 |  | < 1e-05 |  | < 1e-05 |
| C10U A14G U55C A64G G66U | < 1e-05 |  |  |  |  |
| G44C A64G C70U | < 1e-05 |  | < 1e-05 | < 1e-05 | < 1e-05 |
| C34U A36U G66A | < 1e-05 |  | < 1e-05 |  |  |
| U46G G60C | < 1e-05 | < 1e-05 | < 1e-05 | < 1e-05 | < 1e-05 |
| A15G G43U A53C | < 1e-05 |  |  |  |  |
| U45A A52U | < 1e-05 |  | 0.001 ± 0.00019 | 0.000476 ± 0.00013 |  |
| C34A U54C C61G | < 1e-05 | < 1e-05 |  |  |  |
| G63C U65C | < 1e-05 |  | < 1e-05 |  |  |
| C11A A33U U54A | < 1e-05 |  |  |  |  |
| G7C A33G | < 1e-05 | < 1e-05 | < 1e-05 | < 1e-05 |  |
| A6G A12C G35A G41U C71A | < 1e-05 |  |  |  |  |
| G7U U45G C61A | < 1e-05 |  | < 1e-05 |  |  |

| Variant | self-cleavage kobs at 40 uM GlcN6P [1] [s⁻¹] | self-cleavage kobs at 160 uM GlcN6P [2] [s⁻¹] | self-cleavage kobs at 10000 uM GlcN6P [3] [s⁻¹] | self-cleavage kobs at 640 uM GlcN6P [4] [s⁻¹] | self-cleavage kobs at 2500 uM GlcN6P [5] [s⁻¹] |
| --- | --- | --- | --- | --- | --- |
| A33C C67U | < 1e-05 | < 1e-05 |  | < 1e-05 |  |
| A39U G43A C50U | < 1e-05 |  |  |  |  |
| G9A G29C G32C U45C A53C | < 1e-05 |  |  |  |  |
| A36U G41A | < 1e-05 | < 1e-05 | < 1e-05 | < 1e-05 | < 1e-05 |
| A6C A14C U31G A48G G51U C58U C61A | 8.19e-05 ± 3.4e-05 |  |  |  |  |
| A12C G43U C70A | < 1e-05 |  | < 1e-05 |  |  |
| U46C C61U | < 1e-05 | < 1e-05 |  | < 1e-05 | < 1e-05 |
| A6C G51C | < 1e-05 | < 1e-05 | < 1e-05 | < 1e-05 | < 1e-05 |
| G29A A39C G59U | < 1e-05 |  |  |  |  |
| C16G G35C A36U A42U C50U | < 1e-05 |  | < 1e-05 |  |  |
| U30C A39U C68A | < 1e-05 |  | < 1e-05 |  |  |
| C16U A53C U54A | 0.000103 ± 2.4e-05 |  | 0.00236 ± 0.00047 |  |  |
| G13U G32U G37A G40C | < 1e-05 |  |  |  |  |
| G26A C67U | 0.000613 ± 0.00023 |  |  |  |  |
| G37C U46G A48U | < 1e-05 |  | < 1e-05 |  |  |
| A12G G41C C61U | < 1e-05 |  | < 1e-05 |  | < 1e-05 |
| A15C A33U C61A | < 1e-05 |  |  |  |  |
| G32C G41C | < 1e-05 | < 1e-05 | < 1e-05 | < 1e-05 | < 1e-05 |
| G7U U30G C61G G62U | < 1e-05 |  |  |  |  |
| A42U A52U A64U G66U | < 1e-05 |  |  |  |  |
| C8U C68U C70U | < 1e-05 |  | < 1e-05 |  |  |
| C68G C71G | 2.7e-05 ± 1.3e-05 | 7.77e-05 ± 1.5e-05 |  | 8.75e-05 ± 2.3e-05 | 9.89e-05 ± 1.7e-05 |
| G43C G59U | < 1e-05 | < 1e-05 | < 1e-05 | < 1e-05 | < 1e-05 |
| A48G A52G C58U | < 1e-05 |  |  |  |  |
| C8G A33C C67G | < 1e-05 |  |  | < 1e-05 |  |

| Variant | self-cleavage kobs at 40 uM GlcN6P [1] [s⁻¹] | self-cleavage kobs at 160 uM GlcN6P [2] [s⁻¹] | self-cleavage kobs at 10000 uM GlcN6P [3] [s⁻¹] | self-cleavage kobs at 640 uM GlcN6P [4] [s⁻¹] | self-cleavage kobs at 2500 uM GlcN6P [5] [s⁻¹] |
| --- | --- | --- | --- | --- | --- |
| A36G G38A C58A | < 1e-05 |  | < 1e-05 | < 1e-05 |  |
| A36U G66U | < 1e-05 | < 1e-05 | < 1e-05 | < 1e-05 |  |
| A39G C70U | 0.00118 ± 0.00015 | 0.0014 ± 0.0004 | 0.022 ± 0.0045 | 0.00828 ± 0.0017 | 0.0127 ± 0.0053 |
| G9A A12U C61A | < 1e-05 |  |  |  |  |
| U54C U55C U65A | 3.24e-05 ± 1.6e-05 |  |  |  |  |
| A48C G59U | < 1e-05 | < 1e-05 | < 1e-05 | < 1e-05 | < 1e-05 |
| U30C C61U | < 1e-05 | < 1e-05 |  |  |  |
| C50G C61U | 3.66e-05 ± 1.1e-05 | 6.61e-05 ± 1.4e-05 |  | 9.4e-05 ± 1.3e-05 | 0.000423 ± 0.0002 |
| C19A C67A | 0.000243 ± 6.1e-05 |  | 0.000881 ± 0.00024 | 0.00033 ± 9.6e-05 |  |
| A12U U31G A33G C50U | < 1e-05 |  |  |  |  |
| G9C G32C C68A | < 1e-05 |  | < 1e-05 | < 1e-05 | < 1e-05 |
| G32C U46C | < 1e-05 |  |  |  |  |
| G9C A39C G44C | < 1e-05 |  |  |  |  |
| G9C U31G | < 1e-05 | < 1e-05 |  | < 1e-05 | < 1e-05 |
| G41U U46A U49C C71G | < 1e-05 |  |  |  |  |
| G13U A33G | < 1e-05 | < 1e-05 | < 1e-05 | < 1e-05 | < 1e-05 |
| U55A U69C | 0.000718 ± 0.00017 | 0.000108 ± 3.1e-05 | 0.00148 ± 0.0004 | 0.000329 ± 0.0001 | 7.69e-05 ± 3e-05 |
| C11A G44A | < 1e-05 |  | < 1e-05 | < 1e-05 | < 1e-05 |
| G43U G51A | < 1e-05 |  |  | < 1e-05 |  |
| U31A G59A G62A | < 1e-05 |  |  |  |  |
| U54A G63C | < 1e-05 |  | < 1e-05 |  |  |
| G43A A48U | < 1e-05 | < 1e-05 | < 1e-05 | < 1e-05 | < 1e-05 |
